Target: T1, pro-caspase-8 (Homo sapiens, UniProt P62942+Q14790)
T1 construct: in vitro translated, ^35S-labeled Fkp3-Casp8(206); made in house; host or cells: cell-free in vitro transcription/translation, TNT Reticulocyte Lysate System (Promega)
Assay: Cell-free processing of pro-caspase-8 (in vitro translated, 35S-labeled, SDS-PAGE autoradiography)
Type: biochemical
Conditions: AP1510 100 nM; FK506 100 nM; Z-DEVD 10 μM
Description: In vitro transcription and translation of the indicated constructs with ^35S-labeled methionine were carried out with the TNT Reticulocyte Lysate System (Promega; Madison Wis.). The reaction mixture contained 1 μl of the in vitro translation product and the indicated drugs dissolved in 3 μl of CED3 reaction buffer (Xue et al., Genes Devel. 10:1073-1083 (1996), which is incorporated herein by reference). Final drug concentrations of 100 nM of AP1510 or FK506 and 10 μM of Z-Asp-Glu-Val-Asp(SEQ ID NO:1)(Z-DEVD; Enzyme System Products; Calif.) were used. The reaction mixture was incubated in 30° C. for 4 hr, then the reaction stopped by the addition of SDS sample buffer. Reaction products were visualized by SDS-PAGE and autoradiography.

T1 sequence (P62942+Q14790 fused): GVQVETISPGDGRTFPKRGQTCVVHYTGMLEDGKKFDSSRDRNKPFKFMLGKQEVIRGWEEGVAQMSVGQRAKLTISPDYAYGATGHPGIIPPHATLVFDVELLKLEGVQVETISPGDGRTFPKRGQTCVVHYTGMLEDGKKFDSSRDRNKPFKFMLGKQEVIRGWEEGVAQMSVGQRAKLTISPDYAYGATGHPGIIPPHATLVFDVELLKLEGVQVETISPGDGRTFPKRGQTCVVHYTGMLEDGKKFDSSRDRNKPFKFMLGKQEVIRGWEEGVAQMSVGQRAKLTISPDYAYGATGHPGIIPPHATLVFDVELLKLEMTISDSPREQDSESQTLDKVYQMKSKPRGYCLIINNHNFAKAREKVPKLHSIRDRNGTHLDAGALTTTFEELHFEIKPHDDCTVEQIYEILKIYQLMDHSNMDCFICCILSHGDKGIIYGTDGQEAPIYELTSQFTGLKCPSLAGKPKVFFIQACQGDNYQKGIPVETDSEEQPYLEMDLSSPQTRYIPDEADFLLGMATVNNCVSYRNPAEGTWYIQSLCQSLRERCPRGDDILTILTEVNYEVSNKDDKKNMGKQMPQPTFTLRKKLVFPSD

effect on AP1510-initiated cell-free processing of Fkp3-Casp8(206): inhibited
Substance: Z-Asp-Glu-Val-Asp (ZDEVD; N-terminal benzyloxycarbonyl (Z); enzyme used in cell-free processing of Pro-Caspase-8) [z-DEVD]
